In patent US20080131962:

Tests used:
[1] = test system: ZFN pair L+/R+ in cells (synthetic construct); assay: cell_activity; conditions: forced homodimer of cleavage domains
[2] = test system: ZFN pair Lwt/Rwt in cells (synthetic construct); assay: cell_activity; conditions: HEK293 GFP gene correction
[3] = test system: ZFN pair L-/R- in cells (synthetic construct); assay: cell_activity; conditions: forced homodimer of cleavage domains
[4] = test system: ZFN pair L+/R- in cells (synthetic construct); assay: cell_activity; conditions: HEK293 GFP gene correction
[5] = test system: ZFN pair L-/R+ in cells (synthetic construct); assay: cell_activity; conditions: HEK293 GFP gene correction
[6] = test system: ZFN pair E490K/Q486E (synthetic construct); assay: cleavage_in_vitro; conditions: average of both orientations
[7] = test system: ZFN pair E490K:I538K/Q486E (synthetic construct); assay: cleavage_in_vitro; conditions: average of both orientations
[8] = test system: ZFN pair E490K:I538K/wt (synthetic construct); assay: cleavage_in_vitro; conditions: average of both orientations
[9] = test system: ZFN pair L+/R- (L-E490K:I538K, R-Q486E:I499L) (synthetic construct); assay: cleavage_in_vitro
[10] = test system: ZFN pair E490K/E490K (synthetic construct); assay: cleavage_in_vitro; conditions: same variant on L and R
[11] = test system: ZFN pair E490K/Q486E:I499L (synthetic construct); assay: cleavage_in_vitro; conditions: average of both orientations
[12] = test system: ZFN pair E490K/wt (synthetic construct); assay: cleavage_in_vitro; conditions: average of both orientations
[13] = test system: ZFN pair Lwt/Rwt (wild-type FokI cleavage domains) (synthetic construct); assay: cleavage_in_vitro; conditions: six-fold diluted ZFN, FokI buffer pH 8.5, 2 mM MgCl2, 10 uM ZnCl2, 37 C 2 h
[14] = test system: ZFN pair L-/R- (Q486E:I499L both) (synthetic construct); assay: cleavage_in_vitro; conditions: cleavage lost through lack of dimerization, not of ZFP binding
[15] = test system: ZFN pair Q486E:I499L/wt (synthetic construct); assay: cleavage_in_vitro; conditions: average of both orientations; printed I449L in table
[16] = test system: ZFN pair L-/R+ (L-Q486E:I499L, R-E490K:I538K) (synthetic construct); assay: cleavage_in_vitro; conditions: 2 mM MgCl2, 37 C 2 h
[17] = test system: ZFN pair Q486E/Q486E (synthetic construct); assay: cleavage_in_vitro; conditions: same variant on L and R
[18] = test system: ZFN pair Q486E/wt (synthetic construct); assay: cleavage_in_vitro; conditions: average of both orientations
[19] = test system: ZFN pair L+/R+ (E490K:I538K both) (synthetic construct); assay: cleavage_in_vitro; conditions: cleavage lost through lack of dimerization, not of ZFP binding

Sequence	activity (% GFP-positive cells) [1]	activity (% GFP-positive cells) [2]	activity (% GFP-positive cells) [3]	activity (% GFP-positive cells) [4]	activity (% GFP-positive cells) [5]	cleavage activity relative to wild type (fraction of wt/wt) [6]	cleavage activity relative to wild type (fraction of wt/wt) [7]	cleavage activity relative to wild type (fraction of wt/wt) [8]	activity ([9]; 2 mM MgCl2, 37 C 2 h) [% cleaved]	cleavage activity relative to wild type (fraction of wt/wt) ([9]; average of L+/R- and L-/R+, printed I449L in table)	cleavage activity relative to wild type (fraction of wt/wt) [10]	cleavage activity relative to wild type (fraction of wt/wt) [11]	cleavage activity relative to wild type (fraction of wt/wt) [12]	activity [13] [% cleaved]	cleavage activity relative to wild type (fraction of wt/wt) [14]	cleavage activity relative to wild type (fraction of wt/wt) [15]	activity [16] [% cleaved]	cleavage activity relative to wild type (fraction of wt/wt) [17]	cleavage activity relative to wild type (fraction of wt/wt) [18]	cleavage activity relative to wild type (fraction of wt/wt) [19]
TGTTCGGAGCCGCTTTAACCCACTCTGTGGAAGTGCT (double strand) [IL2Rgamma ZFN target in eGFP reporter or endogenous locus]	0.02	1.27	0.12	1.98	1.71															
TGTTCGGAGCCGCTTTAACCCACTCTGTGGAAGTGCT (double strand) [LR heterodimer target]						0.96	0.32	0.74	50	0.48	0.96	0.97	1	61	0	0.48	50	0.19	0.68	0
